Assay results taken from US20210388087A1 (Chugai, published 2021).

B1: H183/L072 VL E27aM (antibody, name in Kabat numbering, V domains shown)
VH: QVQLVESGGGLVQPGRSLRLSCAASGFTFSNAWMHWVRQAPGKGLEWVAQIKDKGNAYAAYYAPSVKGRFTISRDDSKNSIYLQMNSLKTEDTAVYYCHYVHYASASTVLPAFGVDAWGQGTTVTVSS
VL: DIVMTQSPLSLPVTPGEPASISCQASQMLVHMNRNTYLHWYQQKPGQAPRLLIYKVSNRFPGVPDRFSGSGSGTDFTLKISRVEAEDVGVYYCAQGTSVPFTFGQGTKLEIK
notes: Dual-Ig
B2: H183/L072 VL F55L (antibody, name in Kabat numbering, V domains shown)
VH: QVQLVESGGGLVQPGRSLRLSCAASGFTFSNAWMHWVRQAPGKGLEWVAQIKDKGNAYAAYYAPSVKGRFTISRDDSKNSIYLQMNSLKTEDTAVYYCHYVHYASASTVLPAFGVDAWGQGTTVTVSS
VL: DIVMTQSPLSLPVTPGEPASISCQASQELVHMNRNTYLHWYQQKPGQAPRLLIYKVSNRLPGVPDRFSGSGSGTDFTLKISRVEAEDVGVYYCAQGTSVPFTFGQGTKLEIK
notes: Dual-Ig
B3: H183/L072 VL F55K (antibody, name in Kabat numbering, V domains shown)
VH: QVQLVESGGGLVQPGRSLRLSCAASGFTFSNAWMHWVRQAPGKGLEWVAQIKDKGNAYAAYYAPSVKGRFTISRDDSKNSIYLQMNSLKTEDTAVYYCHYVHYASASTVLPAFGVDAWGQGTTVTVSS
VL: DIVMTQSPLSLPVTPGEPASISCQASQELVHMNRNTYLHWYQQKPGQAPRLLIYKVSNRKPGVPDRFSGSGSGTDFTLKISRVEAEDVGVYYCAQGTSVPFTFGQGTKLEIK
notes: Dual-Ig
B4: H183/L072 VL F55P (antibody, name in Kabat numbering, V domains shown)
VH: QVQLVESGGGLVQPGRSLRLSCAASGFTFSNAWMHWVRQAPGKGLEWVAQIKDKGNAYAAYYAPSVKGRFTISRDDSKNSIYLQMNSLKTEDTAVYYCHYVHYASASTVLPAFGVDAWGQGTTVTVSS
VL: DIVMTQSPLSLPVTPGEPASISCQASQELVHMNRNTYLHWYQQKPGQAPRLLIYKVSNRPPGVPDRFSGSGSGTDFTLKISRVEAEDVGVYYCAQGTSVPFTFGQGTKLEIK
notes: Dual-Ig
B5: H183/L072 VL E27aP (antibody, name in Kabat numbering, V domains shown)
VH: QVQLVESGGGLVQPGRSLRLSCAASGFTFSNAWMHWVRQAPGKGLEWVAQIKDKGNAYAAYYAPSVKGRFTISRDDSKNSIYLQMNSLKTEDTAVYYCHYVHYASASTVLPAFGVDAWGQGTTVTVSS
VL: DIVMTQSPLSLPVTPGEPASISCQASQPLVHMNRNTYLHWYQQKPGQAPRLLIYKVSNRFPGVPDRFSGSGSGTDFTLKISRVEAEDVGVYYCAQGTSVPFTFGQGTKLEIK
notes: Dual-Ig
B6: H183/L072 VL F55D (antibody, name in Kabat numbering, V domains shown)
VH: QVQLVESGGGLVQPGRSLRLSCAASGFTFSNAWMHWVRQAPGKGLEWVAQIKDKGNAYAAYYAPSVKGRFTISRDDSKNSIYLQMNSLKTEDTAVYYCHYVHYASASTVLPAFGVDAWGQGTTVTVSS
VL: DIVMTQSPLSLPVTPGEPASISCQASQELVHMNRNTYLHWYQQKPGQAPRLLIYKVSNRDPGVPDRFSGSGSGTDFTLKISRVEAEDVGVYYCAQGTSVPFTFGQGTKLEIK
notes: Dual-Ig
B7: H183/L072 VL F55Q (antibody, name in Kabat numbering, V domains shown)
VH: QVQLVESGGGLVQPGRSLRLSCAASGFTFSNAWMHWVRQAPGKGLEWVAQIKDKGNAYAAYYAPSVKGRFTISRDDSKNSIYLQMNSLKTEDTAVYYCHYVHYASASTVLPAFGVDAWGQGTTVTVSS
VL: DIVMTQSPLSLPVTPGEPASISCQASQELVHMNRNTYLHWYQQKPGQAPRLLIYKVSNRQPGVPDRFSGSGSGTDFTLKISRVEAEDVGVYYCAQGTSVPFTFGQGTKLEIK
notes: Dual-Ig
B8: H183/L072 VL F55E (antibody, name in Kabat numbering, V domains shown)
VH: QVQLVESGGGLVQPGRSLRLSCAASGFTFSNAWMHWVRQAPGKGLEWVAQIKDKGNAYAAYYAPSVKGRFTISRDDSKNSIYLQMNSLKTEDTAVYYCHYVHYASASTVLPAFGVDAWGQGTTVTVSS
VL: DIVMTQSPLSLPVTPGEPASISCQASQELVHMNRNTYLHWYQQKPGQAPRLLIYKVSNREPGVPDRFSGSGSGTDFTLKISRVEAEDVGVYYCAQGTSVPFTFGQGTKLEIK
notes: Dual-Ig
B9: H183/L072 VL E27aQ (antibody, name in Kabat numbering, V domains shown)
VH: QVQLVESGGGLVQPGRSLRLSCAASGFTFSNAWMHWVRQAPGKGLEWVAQIKDKGNAYAAYYAPSVKGRFTISRDDSKNSIYLQMNSLKTEDTAVYYCHYVHYASASTVLPAFGVDAWGQGTTVTVSS
VL: DIVMTQSPLSLPVTPGEPASISCQASQQLVHMNRNTYLHWYQQKPGQAPRLLIYKVSNRFPGVPDRFSGSGSGTDFTLKISRVEAEDVGVYYCAQGTSVPFTFGQGTKLEIK
notes: Dual-Ig
B10: H183/L072 VL E27aN (antibody, name in Kabat numbering, V domains shown)
VH: QVQLVESGGGLVQPGRSLRLSCAASGFTFSNAWMHWVRQAPGKGLEWVAQIKDKGNAYAAYYAPSVKGRFTISRDDSKNSIYLQMNSLKTEDTAVYYCHYVHYASASTVLPAFGVDAWGQGTTVTVSS
VL: DIVMTQSPLSLPVTPGEPASISCQASQNLVHMNRNTYLHWYQQKPGQAPRLLIYKVSNRFPGVPDRFSGSGSGTDFTLKISRVEAEDVGVYYCAQGTSVPFTFGQGTKLEIK
notes: Dual-Ig
B11: H183/L072 VL E27aT (antibody, name in Kabat numbering, V domains shown)
VH: QVQLVESGGGLVQPGRSLRLSCAASGFTFSNAWMHWVRQAPGKGLEWVAQIKDKGNAYAAYYAPSVKGRFTISRDDSKNSIYLQMNSLKTEDTAVYYCHYVHYASASTVLPAFGVDAWGQGTTVTVSS
VL: DIVMTQSPLSLPVTPGEPASISCQASQTLVHMNRNTYLHWYQQKPGQAPRLLIYKVSNRFPGVPDRFSGSGSGTDFTLKISRVEAEDVGVYYCAQGTSVPFTFGQGTKLEIK
notes: Dual-Ig
B12: H183/L072 VL F55R (antibody, name in Kabat numbering, V domains shown)
VH: QVQLVESGGGLVQPGRSLRLSCAASGFTFSNAWMHWVRQAPGKGLEWVAQIKDKGNAYAAYYAPSVKGRFTISRDDSKNSIYLQMNSLKTEDTAVYYCHYVHYASASTVLPAFGVDAWGQGTTVTVSS
VL: DIVMTQSPLSLPVTPGEPASISCQASQELVHMNRNTYLHWYQQKPGQAPRLLIYKVSNRRPGVPDRFSGSGSGTDFTLKISRVEAEDVGVYYCAQGTSVPFTFGQGTKLEIK
notes: Dual-Ig
B13: H183/L072 VL E27aS (antibody, name in Kabat numbering, V domains shown)
VH: QVQLVESGGGLVQPGRSLRLSCAASGFTFSNAWMHWVRQAPGKGLEWVAQIKDKGNAYAAYYAPSVKGRFTISRDDSKNSIYLQMNSLKTEDTAVYYCHYVHYASASTVLPAFGVDAWGQGTTVTVSS
VL: DIVMTQSPLSLPVTPGEPASISCQASQSLVHMNRNTYLHWYQQKPGQAPRLLIYKVSNRFPGVPDRFSGSGSGTDFTLKISRVEAEDVGVYYCAQGTSVPFTFGQGTKLEIK
notes: Dual-Ig
B14: H183/L072 VL E27aW (antibody, name in Kabat numbering, V domains shown)
VH: QVQLVESGGGLVQPGRSLRLSCAASGFTFSNAWMHWVRQAPGKGLEWVAQIKDKGNAYAAYYAPSVKGRFTISRDDSKNSIYLQMNSLKTEDTAVYYCHYVHYASASTVLPAFGVDAWGQGTTVTVSS
VL: DIVMTQSPLSLPVTPGEPASISCQASQWLVHMNRNTYLHWYQQKPGQAPRLLIYKVSNRFPGVPDRFSGSGSGTDFTLKISRVEAEDVGVYYCAQGTSVPFTFGQGTKLEIK
notes: Dual-Ig
B15: H183/L072 VL F55H (antibody, name in Kabat numbering, V domains shown)
VH: QVQLVESGGGLVQPGRSLRLSCAASGFTFSNAWMHWVRQAPGKGLEWVAQIKDKGNAYAAYYAPSVKGRFTISRDDSKNSIYLQMNSLKTEDTAVYYCHYVHYASASTVLPAFGVDAWGQGTTVTVSS
VL: DIVMTQSPLSLPVTPGEPASISCQASQELVHMNRNTYLHWYQQKPGQAPRLLIYKVSNRHPGVPDRFSGSGSGTDFTLKISRVEAEDVGVYYCAQGTSVPFTFGQGTKLEIK
notes: Dual-Ig
B16: H183/L072 VL E27aR (antibody, name in Kabat numbering, V domains shown)
VH: QVQLVESGGGLVQPGRSLRLSCAASGFTFSNAWMHWVRQAPGKGLEWVAQIKDKGNAYAAYYAPSVKGRFTISRDDSKNSIYLQMNSLKTEDTAVYYCHYVHYASASTVLPAFGVDAWGQGTTVTVSS
VL: DIVMTQSPLSLPVTPGEPASISCQASQRLVHMNRNTYLHWYQQKPGQAPRLLIYKVSNRFPGVPDRFSGSGSGTDFTLKISRVEAEDVGVYYCAQGTSVPFTFGQGTKLEIK
notes: Dual-Ig
B17: H183/L072 VL F55M (antibody, name in Kabat numbering, V domains shown)
VH: QVQLVESGGGLVQPGRSLRLSCAASGFTFSNAWMHWVRQAPGKGLEWVAQIKDKGNAYAAYYAPSVKGRFTISRDDSKNSIYLQMNSLKTEDTAVYYCHYVHYASASTVLPAFGVDAWGQGTTVTVSS
VL: DIVMTQSPLSLPVTPGEPASISCQASQELVHMNRNTYLHWYQQKPGQAPRLLIYKVSNRMPGVPDRFSGSGSGTDFTLKISRVEAEDVGVYYCAQGTSVPFTFGQGTKLEIK
notes: Dual-Ig
B18: H183/L072 VL F55N (antibody, name in Kabat numbering, V domains shown)
VH: QVQLVESGGGLVQPGRSLRLSCAASGFTFSNAWMHWVRQAPGKGLEWVAQIKDKGNAYAAYYAPSVKGRFTISRDDSKNSIYLQMNSLKTEDTAVYYCHYVHYASASTVLPAFGVDAWGQGTTVTVSS
VL: DIVMTQSPLSLPVTPGEPASISCQASQELVHMNRNTYLHWYQQKPGQAPRLLIYKVSNRNPGVPDRFSGSGSGTDFTLKISRVEAEDVGVYYCAQGTSVPFTFGQGTKLEIK
notes: Dual-Ig
B19: H183/L072 VL E27aY (antibody, name in Kabat numbering, V domains shown)
VH: QVQLVESGGGLVQPGRSLRLSCAASGFTFSNAWMHWVRQAPGKGLEWVAQIKDKGNAYAAYYAPSVKGRFTISRDDSKNSIYLQMNSLKTEDTAVYYCHYVHYASASTVLPAFGVDAWGQGTTVTVSS
VL: DIVMTQSPLSLPVTPGEPASISCQASQYLVHMNRNTYLHWYQQKPGQAPRLLIYKVSNRFPGVPDRFSGSGSGTDFTLKISRVEAEDVGVYYCAQGTSVPFTFGQGTKLEIK
notes: Dual-Ig
B20: H183/L072 VL F55G (antibody, name in Kabat numbering, V domains shown)
VH: QVQLVESGGGLVQPGRSLRLSCAASGFTFSNAWMHWVRQAPGKGLEWVAQIKDKGNAYAAYYAPSVKGRFTISRDDSKNSIYLQMNSLKTEDTAVYYCHYVHYASASTVLPAFGVDAWGQGTTVTVSS
VL: DIVMTQSPLSLPVTPGEPASISCQASQELVHMNRNTYLHWYQQKPGQAPRLLIYKVSNRGPGVPDRFSGSGSGTDFTLKISRVEAEDVGVYYCAQGTSVPFTFGQGTKLEIK
notes: Dual-Ig
B21: H183/L072 VL F55I (antibody, name in Kabat numbering, V domains shown)
VH: QVQLVESGGGLVQPGRSLRLSCAASGFTFSNAWMHWVRQAPGKGLEWVAQIKDKGNAYAAYYAPSVKGRFTISRDDSKNSIYLQMNSLKTEDTAVYYCHYVHYASASTVLPAFGVDAWGQGTTVTVSS
VL: DIVMTQSPLSLPVTPGEPASISCQASQELVHMNRNTYLHWYQQKPGQAPRLLIYKVSNRIPGVPDRFSGSGSGTDFTLKISRVEAEDVGVYYCAQGTSVPFTFGQGTKLEIK
notes: Dual-Ig

target: T1, Human CD137 ECD (human); assay: Biacore SPR, vs parent H183/L072
T1 construct: entry includes C-terminal His-tag and biotin acceptor peptide; also called human CD137 extracellular domain; 4-1BB
T1 sequence (chain, as listed by the source limits assumed): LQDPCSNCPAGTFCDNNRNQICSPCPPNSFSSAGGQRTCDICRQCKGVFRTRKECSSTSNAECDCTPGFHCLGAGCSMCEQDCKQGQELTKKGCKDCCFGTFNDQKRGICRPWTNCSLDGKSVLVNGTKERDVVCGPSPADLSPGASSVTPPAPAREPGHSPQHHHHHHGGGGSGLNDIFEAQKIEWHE

Point of comparison: B15, “fold change of affinity” value 0 fold. Against it:
- B1 — higher, 0.9 fold
- B2 — higher, 0.2 fold
- B3 — the same, 0 fold
- B4 — the same, 0 fold
- B5 — higher, 0.8 fold
- B6 — the same, 0 fold
- B7 — the same, 0 fold
- B8 — the same, 0 fold
- B9 — higher, 1.1 fold
- B10 — higher, 0.9 fold
- B11 — higher, 0.5 fold
- B12 — the same, 0 fold
- B13 — higher, 0.6 fold
- B14 — higher, 1 fold
- B16 — higher, 0.9 fold
- B17 — higher, 0.2 fold
- B18 — the same, 0 fold
- B19 — higher, 1.1 fold
- B20 — the same, 0 fold
- B21 — the same, 0 fold
